Data as given in patent CN109942708A (SHANGHAI KEQI PHARMACEUTICAL TECH CO LTD, dated 2019).
Where “and” joins values, the source holds several entries; their conditions need not be identical. Identical values can stand only once.

T1: CD138 (UniProt P18827 23-254, limits assumed)
T1 construct: Coated antigen in the specificity ELISA; also called CD138抗原
T1 sequence (looked up): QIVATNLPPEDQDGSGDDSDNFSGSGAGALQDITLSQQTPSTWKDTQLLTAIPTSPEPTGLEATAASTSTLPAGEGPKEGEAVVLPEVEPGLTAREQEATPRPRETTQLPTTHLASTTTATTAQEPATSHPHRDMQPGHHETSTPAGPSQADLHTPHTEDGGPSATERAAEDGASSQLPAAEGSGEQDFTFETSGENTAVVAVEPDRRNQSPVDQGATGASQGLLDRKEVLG

T2: CD38 (UniProt P28907 43-300)
T2 construct: Coated antigen in the specificity ELISA; also called CD38抗原
T2 sequence (looked up): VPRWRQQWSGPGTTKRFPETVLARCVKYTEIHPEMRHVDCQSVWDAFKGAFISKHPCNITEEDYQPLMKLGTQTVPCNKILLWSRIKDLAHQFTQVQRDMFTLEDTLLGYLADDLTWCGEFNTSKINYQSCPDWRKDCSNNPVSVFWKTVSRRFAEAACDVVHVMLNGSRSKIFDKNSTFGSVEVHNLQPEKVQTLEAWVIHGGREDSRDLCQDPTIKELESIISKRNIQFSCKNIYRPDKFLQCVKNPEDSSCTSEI

T3: BCMA抗原 (UniProt Q02223 1-54)
T3 construct: Recombinant BCMA antigen as immobilised on the Biacore chip and coated in the specificity ELISA; also called B细胞成熟抗原; B cell maturation antigen
T3 sequence (looked up): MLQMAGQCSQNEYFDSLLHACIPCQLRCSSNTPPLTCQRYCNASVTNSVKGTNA

B1: BCMA单域抗体B65 (VHH)
VHH: QLQLVESGGGLVQPGGSLRLSCAASGSISGIYAMGWYRQAPGKQRRLVAAITSGGDTFHADSVKGRFTISRDNAKNTMYLQMNSLKPEDTAVYYCNVAPWGDYDVRADFGSWGQGTQVTVSS
notes: FITC-labelled for flow cytometry; also called B65抗体
B2: BCMA单域抗体B1 (VHH)
VHH: QVQLVESGGGLVQPGGSLRLSCTASGSILSIYAMGWYRQAPGKQRELVAAINISSNTFYRDSVKGRFTISRDNAENTVYLQMNSLKPEDTAVYYCNVAPWGDYDVKTDFGGWGQGTQVTVSS
notes: FITC-labelled for flow cytometry; also called B1抗体

Legend:
[1] = target: BCMA-his抗原 (UniProt Q02223); assay: phage ELISA on coated BCMA-his, helper phage control
[2] = target: BCMA-his抗原 (UniProt Q02223); assay: as above; remark: listed apart in the source
[3] = target: BCMA-FC抗原 (UniProt Q02223); assay: phage ELISA on coated BCMA-FC, helper phage control
[4] = target: BCMA-his抗原 (UniProt Q02223); assay: phage ELISA on coated BCMA-his
[5] = target: T1, CD138; assay: ELISA on antigen coated at 10ug/mL
[6] = target: T2, CD38; assay: ELISA on antigen coated at 10ug/mL
[7] = target: T3, BCMA抗原; assay: SPR, Biacore T2000, BCMA amine-coupled to the chip, VHH injected, 25°C
[8] = target: BCMA-FC抗原 (UniProt Q02223); assay: phage ELISA on coated BCMA-FC

Molecule	OD450 [1]	OD450 [2]	OD450 [3]	OD450 [4] [OD450]	binding result [5]	binding result [6]	Kd [7] [nM]	OD450 [8] [OD450]
M13K07	2.36 OD450 and 2.38 OD450	0.85 OD450 and 0.631 OD450	0.518 OD450 and 0.332 OD450	–	–	–	–	–
B1	–	–	–	2.76	no binding	no binding	0.32	–
B2	–	–	–	2.33	no binding	no binding	2.14	2.96
